Assay [1] addresses T1, Bax (Homo sapiens, UniProt Q07812). Put plainly: Bax-induced apoptosis in transfected neuronal cells (DAPI staining). The format is cell-based. More on the design: expressed in transfected cells. As for the experimental part: (A) HEK293T cells were transfected with pcDNA3-HA-Bax together with plasmids encoding GFP, GFP-HN(N), or GFP-HN(M). Cell lysates were immunoprecipitated with polyclonal anti-GFP antibody. Immunoprecipitates (IP) or cell lysates were analyzed by immunoblotting using anti-HA or anti-GFP antibodies, respectively. (B) CSM14.1 neuronal cells were co-transfected with pcDNA3-HA-Bax together with plasmids encoding GFP, GFP-HN(N), or GFP-HN(M). Percent apoptosis was determined 48 h later by DAPI staining (mean±SD; n=3).
(§1) Rat neuronal cell line CSM14.1 cells were transfected with various plasmids using the Lipofectamine reagent (Invitrogen). For transfection, 10×10^5 cells were plated per well using 6 well plates. Each well received 1 μg DNA plus […] of Lipofectamine. After 24 hours of transfection, the percentage of cell death was determined using 4′-6-diamidino-2-phenylindole (DAPI) staining. […] The data shown were obtained using the cytosolic form of Humanin; however, both cytosolic and mitochondrial forms of Humanin were tested and the results were the same.
(§2) Apoptosis assays were performed as follows. Both floating and adherent cells (after trypsinization) were collected 48 hr after transfection, fixed, and stained using 4′,6-diamidine-2′-phenylindole dihydrochloride (DAPI) for assessing apoptosis based on nuclear fragmentation and chromatin condensation (Fields and Song, supra (1989)).
Since Humanin co-immunoprecipitates with Bax but not Bak, the effects of Humanin over-expression on apoptosis induced by these members of the Bcl-2 family was compared. […] Similar results were obtained regardless of whether Humanin was fused to the N- or C-terminus of GFP, with both of these GFP fusion polypeptides localizing to the cytosol of cells.

Assay [2] deals with T1, Bax. Briefly: Suppression of apoptosis induced by Bax over-expression (Humanin mutants). Type of assay: cell-based. Also noted: expressed in transfected cells; host or cells: HEK293T. The following applies: GFP-fusion polypeptides, 3:1 ratio of HN:Bax plasmid DNA. The method, then: as §2
(§3) In order to explore whether a correlation exists between Humanin binding to Bax and Humanin-mediated suppression of apoptosis, Bax was co-expressed with various GFP-fusion polypeptides encoding wild-type, full-length Humanin or various truncation and site-specific mutants of Humanin (Table 1). Expression of all GFP-fusion polypeptides was confirmed by immunoblotting, and ability to bind Bax was determined by co-immunoprecipitation assay. Each Humanin mutant was scored for ability to suppress apoptosis induced by Bax over-expression by >50% using a 3:1 ratio of HN:Bax plasmid DNA. […] Based on these studies, an active region of the 24 amino-acid Humanin peptide, mapped to residues 7-17.
Cell culture and transfections were performed as follows. CSM14.1, HCT116, Cos-7, and SF268 cells were cultured in DMEM high glucose media (Irvine Scientific, Santa Ana, Calif.) containing 10% fetal bovine serum (FBS). PC-3 cells were cultured with RPMI 1640 media containing 10% FBS. Transfection of cells was performed using SuperFect (Qiagen, Chatsworth, Calif.) or LipofectaminePLUS reagent ([…]).

For assay [3] the following is noted: previously reported (Hashimoto et al.); cited from earlier work.
Assay [4] addresses T1, Bax. Briefly: Co-immunoprecipitation of GFP-Humanin fusion polypeptides with Bax in transfected cells. The format is binding. The following applies: for Bax binding: GFP-fusion polypeptides, co-immunoprecipitation. More on the design: expressed in transfected cells; host or cells: HEK293T; key to Bax binding: +: ability to bind Bax was determined by co-immunoprecipitation assay; −: lacked Bax-binding activity.
Excerpt: Humanin (HN) cDNA was sub-cloned into a Green Fluorescence Protein (GFP) expression vector GFP-Cl at the Xhol/Hind III sites, producing a GFP-HN fusion polypeptide. GFP and GFP-HN were transfected into 293T cells with pcDNA3-HA-Bax. Cell lysates from these cells were immunoprecipitated with anti-GFP antibody and subsequently blotted with anti-HA antibody. The lysates were also blotted with ani-GFP antibody to confirm polypeptide expression. […] The data shown were obtained using the cytosolic form of Humanin; however, both cytosolic and mitochondrial forms of Humanin were tested and the results were the same.
Co-immunoprecipitation assays were performed using Humanin polypeptides expressed as fusion polypeptides with the Green Fluorescent Protein (GFP) in human cells. Wild-type Humanin fused to GFP is referred to as GFP-HN and a mutant form of Humanin, where the cysteine at position 8 is replaced with proline, fused to GFP is referred to as GFP-C8P. […] Immunoblot analysis of lysates of the transfected cells confirmed production of all proteins. In addition, GFP-HN also coimmunoprecipitated endogenous Bax from cell lines, which contain relatively high levels of the Bax protein.
Immunoblotting and immunoprecipitations were performed as follows. Immunoblotting was performed as described previously (Fields and Song, Nature 340:245-246 (1989)). For co-immunoprecipitations, cells were cultured in 50 uM […] Valine Alanine Asparate fluoromethyl-ketone (zVAD-fmk) to prevent apoptosis. Cells were suspended in lysis buffer (50 mM Tris-HCl, pH7.4; 150 mM NaCl; 20 mM EDTA; 50 mM NaF; 0.5% NP-40; 0.1 mM Na3VO4; 20 ug/ml Leupeptin; 20 ug/ml Aprotinin; 1 mM DTT; and 1 mM PMSF). Lysates (200 ul diluted in 1 ml final volume of lysis buffer) were cleared by incubation with 15 ul of protein G-Sepharose 4B (Zymed) and then incubated with 15 ul of polyclonal antibody and 15 ul of protein G at 4° C. overnight. Beads were then washed 4 times with 1.5 mls lysis buffer before boiling in Laemmli sample buffer and performing SDS-PAGE/immunoblotting.
as §3

Assay [5] addresses T2, t-Bid (Homo sapiens, UniProt P55957).
T2 sequence (P55957 61-195 limits assumed): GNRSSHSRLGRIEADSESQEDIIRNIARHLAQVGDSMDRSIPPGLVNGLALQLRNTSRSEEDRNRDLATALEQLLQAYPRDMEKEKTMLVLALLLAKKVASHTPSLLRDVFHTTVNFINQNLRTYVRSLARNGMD
Put plainly: Bid-induced apoptosis in CSM14.1 cells (DAPI staining). Also noted: expressed in transfected cells; host or cells: CSM14.1 rat hippocampal neuronal cells. Type of assay: cell-based. The following applies: 24 hours after transfection. The method, then:
Apoptosis was examined by DAPI staining. The data shown were obtained using the cytosolic form of Humanin; however, both cytosolic and mitochondrial forms of Humanin were tested and the results were the same.
as §1

The test system of assay [6] is CSM14.1 cells. Briefly: Apoptosis of CSM14.1 cells induced by various stimuli. The format is cell-based, rat. The method, then:
(A-D) CMS14.1 neuronal cells were transfected with plasmids encoding Flag-HN peptide or Flag-control (27-amino-acid) peptide, together with GFP-encoding plasmid at 4:1 ratio. Cells were either cultured without further treatment (open bars) or subjected to various apoptotic stimuli for various times (dark bars), including (A) STS for 8 h (dark symbols=Flag-control; open symbols=Flag-HN), (B) Serum-deprivation for 72 h, (C) 10 joules/m2 Uvirradiation followed by 24 h culture, and (D) 50 ng/ml TNFa in […] for 24 h. Cells were then fixed and stained with DAPI to determine the percentage of apoptotic cells, evaluating=200 GFP-positive cells per sample (mean±SD; n=3). (inset) Lysates prepared from replicate cultures of transfected cells were normalized for total protein content and analyzed by immunoblotting using anti-Flag (top) and anti-tubulin (bottom) antibodies, confirming production of similar amounts of Flag-control and Flag-HN peptides. (E) SF268 cells were transfected with Humanin siRNA (HN-siRNA) (dark bars) or mutant siRNA containing two mismatches (mut-siRNA) as negative control (open bars). (Upper panel) After 72 hr, cell lysates were prepared and 100 ug was analyzed by immunoblotting using anti-HN and anti-tubulin (as a loading control) antibodies. (Lower panel) At 72 hr after siRNA transfection, SF268 cells were cultured with 0.1 μM STS for 8 hrs, then % apoptosis was determined (mean+std dev; n=3). (F) HN protects against Bax- but not Bak-induced apoptosis. CSM14.1 neuronal cells were co-transfected with pcDNA3-HA-Bax or pcDNA3-HA-Bak together with plasmids encoding with GFP (indicated by “-”), GFP-HN, or GFP-HN(C8P). Apoptosis (%) was measured 48 hrs later among GFP-positive cells. (G) Humanin inhibits STS-induced apoptosis in wild type HCT116 cells, but not HCT116 BAX -/- cells. HCT116 cells heterozygous or homozygous for BAX gene inactivation were transfected with plasmids encoding GFP (open bars) or GFP-HN (dark bars). After 24 h, cells were cultured without (C) or with STS (0.2 μM for wild type and 1.0 μM for Bax - /- cells) for 8 h, then % apoptosis was determined for GFP-positive cells (mean+std dev; n=3). (inset) Lysates from the cells were analyzed by immunoblotting (20 ug) using anti-Bax (top) and anti-Bid (bottom) antibodies. (H) HN prevents Bax-induced cell death in yeast. Cells were co-transformed with YEp51-Bax (encoding Bax under control of a GAL10 promoter) and plasmid control (C) or plasmids encoding Humanin or Humanin(C8P) fusion polypeptides. Cells initially grown in glucose-containing medium were streaked onto either glucose (top) or galactose (bottom) plates to suppress or induce Bax expression, respectively.
For these experiments, Flag-epitope tagged Humanin (Flag-HN) or Flag control polypeptides were expressed in CSM14.1 cells, an immortalized rat hippocampal neuronal cell line that has been used as a model for neuronal apoptosis studies (Kermer et al., Cell Death Differ. 9:405-413 (2002)). Apoptosis of CSM14.1 cells induced by Staurosporine (STS), UV-irradiation, and serum-deprivation was suppressed by Flag-HN (FIG. 6A-C). […] Note that at higher doses of STS (FIG. 6A), Humanin-mediated protection was overcome, indicating Humanin-insensitive mechanisms of apoptosis induction exist, even when using a mitochondria-dependent death stimuli.
Apoptosis assays were performed as follows. […]

No end group written: not given here.

T1 sequence (Q07812 whole entry, species assumed): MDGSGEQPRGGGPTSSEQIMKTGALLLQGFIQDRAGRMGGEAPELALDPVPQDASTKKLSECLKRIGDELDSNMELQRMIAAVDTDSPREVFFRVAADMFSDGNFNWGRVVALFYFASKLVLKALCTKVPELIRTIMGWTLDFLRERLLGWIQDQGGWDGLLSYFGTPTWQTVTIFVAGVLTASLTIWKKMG

As for “GFP-HN(C8P): mutant Humanin, cysteine at position 8 replaced with proline, fused to GFP (MAPRGFSPLLLLTSEIDLPVKRRA; also: fused to GFP; UniProt Q8IVG9 1-24, looked up, variant C8P)”, the “suppression of apoptosis induced by Bax” value in assay [1] (CSM14.1 or PC-3 cells, transient co-transfection) was “did not suppress”. In addition, the Bax suppression result in assay [2] was “− (failed to protect against Bax-induced apoptosis)”. Also, the “anti-apoptotic activity when expressed in cells” value in assay [3] is recorded as “lack anti-apoptotic activity”. Further, the “co-immunoprecipitation with tagged Bax” value in assay [4] (293T/HEK293T cells, anti-GFP immunoprecipitation) is on record as “did not”. Moreover, the Bax binding entry in assay [4] is listed as “−”.
With “Humanin (C8A): mutant form of Humanin where the cysteine at position 8 was mutated to an alanine (MAPRGFSALLLLTSEIDLPVKRRA; also: fused to GFP; UniProt Q8IVG9 1-24, looked up, variant C8A)”, the Bid-induced apoptosis entry in assay [5] is on record as “not able to decrease”. Besides, the Bax-induced apoptosis result in assay [1] (CSM14.1 cells, 24 hours after transfection, DAPI) was “not able to decrease”.
For the substance “L9R: GFP-fusion of Humanin site-specific mutant L9R (MAPRGFSCRLLLTSEIDLPVKRRA; also: fused to GFP; UniProt Q8IVG9 1-24, looked up, variant L9R)”, the Bax suppression result in assay [2] is on record as “− (failed to protect against Bax-induced apoptosis)”. Also, the “anti-apoptotic activity when expressed in cells” value in assay [3] is recorded as “lack anti-apoptotic activity”. The Bax binding result in assay [4] is reported as “−”.
With “Flag-HN: Flag-epitope tagged Humanin expressed in cells (MAPRGFSCLLLLTSEIDLPVKRRA; also: Flag epitope tag; UniProt Q8IVG9 1-24, looked up)”, in assay [6], the “apoptosis induced by UV-irradiation” value is listed as “suppressed” and the “apoptosis induced by serum-deprivation” value was “suppressed”. Also, in assay [6] (Bax-independent death stimulus), the “apoptosis induced by TNF” value is listed as “not suppressed”. For the same substance, the “apoptosis induced by Staurosporine (STS)” value in assay [6] (STS 8 h) is reported as “suppressed”. The “protection at higher doses of STS” value in assay [6] (higher doses of STS) was “overcome”.

Values taken from patent US7422862B2, “Methods for identifying modulators of apoptosis” (The Burnham Institute, priority 2001, dated 2008).
